Experimental data from the supplement of paper PMC10065799, “High-throughput profiling of sequence recognition by tyrosine kinases and SH2 domains using bacterial peptide display” (eLife, 2023).

Target: FGFR1 (UniProt P11362)
Assay: phosphorylation enrichment, bacterial display (enrichment ratio); higher = better substrate or ligand; peptides without Tyr show the background
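Also: 11-residue human phosphosite peptides and single-mutation variants displayed on the E. coli surface, counted by deep sequencing, each peptide's frequency after selection divided by its frequency in the unselected input library; frequency after pTyr selection over input frequency; kinase dosed for 20-30% of maximal phosphorylation in three min.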

Chain of FGFR1 (P11362 whole entry, looked up): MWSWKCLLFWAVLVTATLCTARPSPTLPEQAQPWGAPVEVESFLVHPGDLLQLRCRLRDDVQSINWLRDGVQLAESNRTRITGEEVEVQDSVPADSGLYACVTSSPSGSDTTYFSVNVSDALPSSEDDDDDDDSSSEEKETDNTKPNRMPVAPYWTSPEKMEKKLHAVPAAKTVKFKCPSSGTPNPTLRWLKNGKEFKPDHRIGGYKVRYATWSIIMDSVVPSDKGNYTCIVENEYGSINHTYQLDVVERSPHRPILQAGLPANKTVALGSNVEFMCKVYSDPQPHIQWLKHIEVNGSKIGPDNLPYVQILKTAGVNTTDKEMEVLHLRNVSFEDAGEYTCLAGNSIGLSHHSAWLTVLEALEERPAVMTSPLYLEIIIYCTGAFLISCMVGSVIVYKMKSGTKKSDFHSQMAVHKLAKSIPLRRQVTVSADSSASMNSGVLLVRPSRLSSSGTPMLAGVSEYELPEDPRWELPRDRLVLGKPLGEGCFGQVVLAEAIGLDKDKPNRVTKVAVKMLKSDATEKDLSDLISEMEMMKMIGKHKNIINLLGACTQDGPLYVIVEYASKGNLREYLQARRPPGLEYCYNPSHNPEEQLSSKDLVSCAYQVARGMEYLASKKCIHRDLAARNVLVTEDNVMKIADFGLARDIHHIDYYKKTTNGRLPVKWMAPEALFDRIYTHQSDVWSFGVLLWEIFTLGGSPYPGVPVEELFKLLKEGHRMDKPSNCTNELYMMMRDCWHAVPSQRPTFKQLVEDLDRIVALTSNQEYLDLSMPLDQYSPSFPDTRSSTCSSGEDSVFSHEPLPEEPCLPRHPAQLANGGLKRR

**Q.** How did the phosphorylation enrichment turn out when VEDHFYEGGIG [TKT_Y564_YF] was run?
**A.** 0.58

**Q.** For SVNIRYLLFPS [SERAC1_Y548], which phosphorylation enrichment is on record?
**A.** 0.574

**Q.** Which phosphorylation enrichment does the source give for KLADVYQAELR [GFAP_Y116] here?
**A.** 0.472

**Q.** ATDLAYYLVCK [ASL_Y375_R379C] was tested. Which phosphorylation enrichment did it give?
**A.** 3.43

**Q.** NTVLGYFIGCI [GARS1_Y408_R412C] was tested. Which phosphorylation enrichment did it give?
**A.** 0.457

**Q.** With FTHSDYQFGQR [PKP2_Y166_S169G_YF] as the sequence, how does the phosphorylation enrichment read?
**A.** 0.465

**Q.** How did the phosphorylation enrichment turn out when NGPDVYVLPVT [AATK_Y93_L97V] was run?
**A.** 0.72

**Q.** Which phosphorylation enrichment does the source give for EFLKNYFTDKA [DSG2_Y775_R773K] here?
**A.** 0.555

**Q.** How did the phosphorylation enrichment turn out when VHKEGYNKLNQ [ZNF676_Y98] was run?
**A.** 0.356

**Q.** For VDSNPYSRLVA [UBA5_Y53_M57V], which phosphorylation enrichment is on record?
**A.** 0.465

**Q.** With VDSAHYKLLET [DTX3L_Y385] as the sequence, how does the phosphorylation enrichment read?
**A.** 0.485

**Q.** For SEDANYMRVSC [TTC3_Y1288_K1289M], which phosphorylation enrichment is on record?
**A.** 0.735

**Q.** How did the phosphorylation enrichment turn out when KVITDYFVDMK [MPP4_Y566_YF] was run?
**A.** 0.748

**Q.** Which phosphorylation enrichment does the source give for AKQVGCENAGT [PC_Y304_Y304C] here?
**A.** 0.391

**Q.** Which phosphorylation enrichment does the source give for TFAVSYLPDMS [FLNC_Y1602_T1599A_YF] here?
**A.** 0.5

**Q.** Which phosphorylation enrichment does the source give for SSAETYSRMRL [NBEAL2_Y1835] here?
**A.** 0.393

**Q.** How did the phosphorylation enrichment turn out when AVAFLYFKSIG [ADGRL4_Y301_V300L_YF] was run?
**A.** 0.549

**Q.** TLQSMSGCDVG [HLA-B_Y123_Y123S] was tested. Which phosphorylation enrichment did it give?
**A.** 0.48

**Q.** With SVTCTYSPAPN [TP53_Y126_L130P] as the sequence, how does the phosphorylation enrichment read?
**A.** 0.495

**Q.** With FSGIFYKPESL [L2HGDH_Y103_H98Y_YF] as the sequence, how does the phosphorylation enrichment read?
**A.** 0.436

**Q.** With GPKSTYISSAG [GOLGA5_Y62_A67G] as the sequence, how does the phosphorylation enrichment read?
**A.** 0.326

**Q.** QGLRLYRSHLA [BTK_Y617_P619S] was tested. Which phosphorylation enrichment did it give?
**A.** 0.552

**Q.** How did the phosphorylation enrichment turn out when VISNAYVDLSP [HSD17B4_Y602_A606S] was run?
**A.** 0.896

**Q.** With YLGEEYVKAVG [TF_Y674] as the sequence, how does the phosphorylation enrichment read?
**A.** 0.446

**Q.** With QKLPSYILENN [VPS13B_Y2774] as the sequence, how does the phosphorylation enrichment read?
**A.** 0.625

**Q.** How did the phosphorylation enrichment turn out when VFDMLYQLANL [USP24_Y1087] was run?
**A.** 0.754

**Q.** For VNKIYHPDFIV [LIG3_Y768_Y768H], which phosphorylation enrichment is on record?
**A.** 0.453

**Q.** With FADIAYNFRHR [PAH_Y166_G171R_YF] as the sequence, how does the phosphorylation enrichment read?
**A.** 0.317

**Q.** With KVALVYGQMNE [ATP5F1B_Y269] as the sequence, how does the phosphorylation enrichment read?
**A.** 0.443

**Q.** Which phosphorylation enrichment does the source give for FARNCYVAGQF [G6PD_Y107_S106C_YF] here?
**A.** 0.461

**Q.** How did the phosphorylation enrichment turn out when IFGVSYDEFRF [CFTR_Y512_YF] was run?
**A.** 0.5

**Q.** With HLLRIYFDITD [MMP27_Y307_W304L_YF] as the sequence, how does the phosphorylation enrichment read?
**A.** 0.874

**Q.** STTSDYQWDFS [MTDH_Y364_V368F] was tested. Which phosphorylation enrichment did it give?
**A.** 1.24

Target: Fyn (UniProt P06241)
Sequence (P06241 whole entry, looked up): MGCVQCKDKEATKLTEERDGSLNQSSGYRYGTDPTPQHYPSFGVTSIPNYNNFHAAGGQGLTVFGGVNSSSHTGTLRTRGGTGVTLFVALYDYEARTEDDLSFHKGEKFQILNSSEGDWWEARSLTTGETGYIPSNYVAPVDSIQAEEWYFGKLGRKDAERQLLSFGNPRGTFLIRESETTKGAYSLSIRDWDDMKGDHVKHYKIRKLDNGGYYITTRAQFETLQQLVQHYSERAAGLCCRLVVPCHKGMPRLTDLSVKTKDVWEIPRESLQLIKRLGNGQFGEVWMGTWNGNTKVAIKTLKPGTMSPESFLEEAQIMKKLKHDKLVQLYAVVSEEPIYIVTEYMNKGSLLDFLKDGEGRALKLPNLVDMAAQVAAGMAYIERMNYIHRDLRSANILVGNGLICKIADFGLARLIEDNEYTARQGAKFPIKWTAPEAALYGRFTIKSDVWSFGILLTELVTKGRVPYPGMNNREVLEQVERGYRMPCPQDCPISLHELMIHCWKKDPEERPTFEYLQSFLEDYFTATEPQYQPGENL
Assay: as above

**Q.** With VEDHFYEGGIG [TKT_Y564_YF] as the sequence, how does the phosphorylation enrichment read?
**A.** 0.684

**Q.** SVNIRYLLFPS [SERAC1_Y548] was tested. Which phosphorylation enrichment did it give?
**A.** 0.47

**Q.** Which phosphorylation enrichment does the source give for KLADVYQAELR [GFAP_Y116] here?
**A.** 0.492

**Q.** Which phosphorylation enrichment does the source give for ATDLAYYLVCK [ASL_Y375_R379C] here?
**A.** 0.852

**Q.** How did the phosphorylation enrichment turn out when NTVLGYFIGCI [GARS1_Y408_R412C] was run?
**A.** 0.491

**Q.** For FTHSDYQFGQR [PKP2_Y166_S169G_YF], which phosphorylation enrichment is on record?
**A.** 0.443

**Q.** With NGPDVYVLPVT [AATK_Y93_L97V] as the sequence, how does the phosphorylation enrichment read?
**A.** 2.25

**Q.** EFLKNYFTDKA [DSG2_Y775_R773K] was tested. Which phosphorylation enrichment did it give?
**A.** 0.581

**Q.** With VHKEGYNKLNQ [ZNF676_Y98] as the sequence, how does the phosphorylation enrichment read?
**A.** 0.38

**Q.** For VDSNPYSRLVA [UBA5_Y53_M57V], which phosphorylation enrichment is on record?
**A.** 0.553

**Q.** For VDSAHYKLLET [DTX3L_Y385], which phosphorylation enrichment is on record?
**A.** 0.485

**Q.** Which phosphorylation enrichment does the source give for SEDANYMRVSC [TTC3_Y1288_K1289M] here?
**A.** 0.529

**Q.** With KVITDYFVDMK [MPP4_Y566_YF] as the sequence, how does the phosphorylation enrichment read?
**A.** 0.455

**Q.** For AKQVGCENAGT [PC_Y304_Y304C], which phosphorylation enrichment is on record?
**A.** 0.487

**Q.** How did the phosphorylation enrichment turn out when TFAVSYLPDMS [FLNC_Y1602_T1599A_YF] was run?
**A.** 0.466

**Q.** SSAETYSRMRL [NBEAL2_Y1835] was tested. Which phosphorylation enrichment did it give?
**A.** 0.431

**Q.** AVAFLYFKSIG [ADGRL4_Y301_V300L_YF] was tested. Which phosphorylation enrichment did it give?
**A.** 0.483

**Q.** Which phosphorylation enrichment does the source give for TLQSMSGCDVG [HLA-B_Y123_Y123S] here?
**A.** 0.42

**Q.** Which phosphorylation enrichment does the source give for SVTCTYSPAPN [TP53_Y126_L130P] here?
**A.** 0.435

**Q.** FSGIFYKPESL [L2HGDH_Y103_H98Y_YF] was tested. Which phosphorylation enrichment did it give?
**A.** 0.438

**Q.** With GPKSTYISSAG [GOLGA5_Y62_A67G] as the sequence, how does the phosphorylation enrichment read?
**A.** 0.395

**Q.** Which phosphorylation enrichment does the source give for QGLRLYRSHLA [BTK_Y617_P619S] here?
**A.** 0.571

**Q.** VISNAYVDLSP [HSD17B4_Y602_A606S] was tested. Which phosphorylation enrichment did it give?
**A.** 0.534

**Q.** With YLGEEYVKAVG [TF_Y674] as the sequence, how does the phosphorylation enrichment read?
**A.** 0.465

**Q.** With QKLPSYILENN [VPS13B_Y2774] as the sequence, how does the phosphorylation enrichment read?
**A.** 0.629

**Q.** How did the phosphorylation enrichment turn out when VFDMLYQLANL [USP24_Y1087] was run?
**A.** 3

**Q.** For VNKIYHPDFIV [LIG3_Y768_Y768H], which phosphorylation enrichment is on record?
**A.** 0.446

**Q.** For FADIAYNFRHR [PAH_Y166_G171R_YF], which phosphorylation enrichment is on record?
**A.** 0.407

**Q.** For KVALVYGQMNE [ATP5F1B_Y269], which phosphorylation enrichment is on record?
**A.** 1.47

**Q.** How did the phosphorylation enrichment turn out when FARNCYVAGQF [G6PD_Y107_S106C_YF] was run?
**A.** 0.387

**Q.** Which phosphorylation enrichment does the source give for IFGVSYDEFRF [CFTR_Y512_YF] here?
**A.** 0.673

**Q.** With HLLRIYFDITD [MMP27_Y307_W304L_YF] as the sequence, how does the phosphorylation enrichment read?
**A.** 0.491

**Q.** STTSDYQWDFS [MTDH_Y364_V368F] was tested. Which phosphorylation enrichment did it give?
**A.** 0.473
